Reference: patent publication US9802942B2, “Substituted 4-methyl-pyrrolo[1,2-A]pyrimidine-8-carboxamide compounds and uses thereof for modulating glucocerebrosidase activity” (Northwestern University, priority 2015, dated 2017)

Key:
wt. GCase = target: T1, wt. GCase (Homo sapiens, UniProt P04062); test: Saposin C activation assay with 4MU-Glc substrate, wt. enzyme; type: biochemical; conditions: pH 4.7
T1 construct: purchased Shire Human Genetic Therapies, Inc. Vpriv
T1 sequence (P04062 40-536): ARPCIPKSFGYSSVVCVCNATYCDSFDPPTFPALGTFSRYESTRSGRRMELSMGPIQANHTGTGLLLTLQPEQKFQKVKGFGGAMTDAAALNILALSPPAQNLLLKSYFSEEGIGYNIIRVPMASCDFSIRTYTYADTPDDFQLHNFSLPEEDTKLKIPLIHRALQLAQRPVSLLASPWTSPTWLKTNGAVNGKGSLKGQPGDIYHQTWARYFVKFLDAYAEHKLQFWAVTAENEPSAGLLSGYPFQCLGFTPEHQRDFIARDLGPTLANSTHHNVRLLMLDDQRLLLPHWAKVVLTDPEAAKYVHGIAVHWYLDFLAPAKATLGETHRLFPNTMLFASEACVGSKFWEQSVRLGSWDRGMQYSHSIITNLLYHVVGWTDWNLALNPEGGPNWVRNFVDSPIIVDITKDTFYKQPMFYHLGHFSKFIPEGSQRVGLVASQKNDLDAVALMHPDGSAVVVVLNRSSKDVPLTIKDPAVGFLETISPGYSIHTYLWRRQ
Procedure: (§1) Saposin C (0.5 μL/well) was added to a black 96-well plate (the final titration was 1.72 nM to 1.76 μM, 12 concentrations). The compound 4 activated enzyme and wt. enzyme (33.5 μL/well, 7.5 nM final concentration) in assay buffer (50 mM Citric acid, 176 mM K2HPO4, 0.01% tween-20, 0.01% (g/mL) phosphatidylserine, pH 4.7) was added to the wells, respectively. After 5 min of incubation at room temperature, the enzyme reaction was initiated by the addition of 33 μL/well 4MU-Glc substrate. Final concentrations of the 4MU-Glc substrate was 1.5 mM. The reaction was terminated by the addition of 33 μL/well stop solution (1 M NaOH and 1 M glycine mixture, pH 10) after 30 min of incubation at 37° C. The fluorescence was then measured in the plate reader with Ex=365 nm and Em=440 nm.

covalent activated GCase = target: T2, covalent activated GCase (Homo sapiens, UniProt P04062); test: Saposin C activation assay with 4MU-Glc substrate, probe 4 pre-activated enzyme; type: biochemical; conditions: pH 4.7
T2 construct: purchased Shire Human Genetic Therapies, Inc. Vpriv
T2 sequence (P04062 40-536): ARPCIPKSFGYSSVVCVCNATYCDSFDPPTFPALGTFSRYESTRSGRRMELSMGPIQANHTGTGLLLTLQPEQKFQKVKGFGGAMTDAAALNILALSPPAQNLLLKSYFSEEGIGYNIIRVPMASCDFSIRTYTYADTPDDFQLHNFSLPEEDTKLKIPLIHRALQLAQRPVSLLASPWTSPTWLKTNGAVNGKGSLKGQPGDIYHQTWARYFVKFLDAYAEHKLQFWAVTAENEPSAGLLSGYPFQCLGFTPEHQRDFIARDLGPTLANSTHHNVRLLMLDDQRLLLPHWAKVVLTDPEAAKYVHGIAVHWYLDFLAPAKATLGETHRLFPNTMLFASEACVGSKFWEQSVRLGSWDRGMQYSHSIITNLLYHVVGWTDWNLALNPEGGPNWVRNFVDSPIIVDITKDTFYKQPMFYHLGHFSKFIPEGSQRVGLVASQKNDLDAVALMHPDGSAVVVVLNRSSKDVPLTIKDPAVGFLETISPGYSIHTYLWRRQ
Procedure: as §1

AC50 (wt. GCase): 0.1 µM | AC50 (covalent activated GCase): 0.071 µM
B1: Saposin C: a natural co-factor of GCase (protein, UniProt P07602 311-390, looked up)
Saposin-C: SDVYCEVCEFLVKEVTKLIDNNKTEKEILDAFDKMCSKLPKSLSEECQEVVDTYGSSILSILLEEVSPELVCSMLHLCSG
modifications: Saposin-C
notes: a natural co-factor of GCase
